± gives the standard deviation of the averaged measurements.
System: ATP
Assay: switch fluorescence ratio, 500 uM ATP over buffer (Cy3 cluster intensity, sum of 5 cycles each) (fold (ratio)); higher = stronger signal-on switching upon ATP binding; sequences stand for … in TCGTCGGCAGCGTCAGATGTGTATAAGAGACAGTTTTTTTTTTTTTTTTTTTTTTTTT…TC
Settings: aptamer strand: ATP DNA aptamer (quencher-CACCTGGGGGAGTATTGCGGAGGAAGG + anchor), 100 nM annealed; ATP concentration: 500 uM
Summary of the method: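 The quencher-labelled ATP aptamer, at 100 nM, was annealed to Cy3-labelled switching-strand clusters on a modified Illumina MiSeq flow-cell. The clusters were imaged in selection buffer, then after 15 min with 500 uM ATP at 22 °C, and this buffer/ATP cycle ran five times with NaOH stripping and re-annealing between runs. Per-cluster fluorescence ratios, summed target-cycle over summed buffer-cycle Cy3 intensity, were averaged per switch-domain sequence. Clusters outside 100-1000 RFU were excluded.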
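Note: ATP exposure 15 min at 22 °C before imaging.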

Sequence | switch fluorescence ratio
ATTCAGGTGT | 2.66 ± 0.29
GGCTTGCGTA | 0.9512 ± 0.0029
CGTGTTGGCT | 1.072 ± 0.0032
GGAAAGGGGC | 0.95 ± 0.053
CGGCAATGGG | 1.77 ± 0.15
TACTCTGTGT | 1.01 ± 0.014
AAAAGGGAGA | 1.01 ± 0.013
TGGGTCTAAG | 0.9669 ± 0.0093
GATCGGGGAA | 1.01 ± 0.02
TAAAAATGGT | 1.01 ± 0.024
TGCATGGCTG | 0.99 ± 0.01
TGTTTGGGCT | 1.02 ± 0.041
CGTCGGGGGA | 1.01 ± 0.027
AAAGAAGATG | 0.953 ± 0.045
ATTTTAAATT | 1 ± 0.019
CTGAATGCGT | 0.9844 ± 0.0084
AATTTGCGGG | 0.98 ± 0.024
GGAGATATCA | 1.035 ± 0.0074
TACAGATGT | 1.028 ± 0.01
AGTAGGGCGA | 1 ± 0.092
TTTAGACA | 1.02 ± 0.053
GTGACGATGT | 1.01 ± 0.0071
ACGATGGCCT | 1 ± 0.014

Sequence | switch fluorescence ratio
TTGCCATGTG | 1 ± 0.034
ACGGGTTTTG | 1.03 ± 0.024
GGGTAGTTTT | 0.989 ± 0.018
CTTCTCAGTA | 1.03 ± 0.048
CGGGATGTTG | 1.02 ± 0.035
CGGTTCCTAA | 0.994 ± 0.016
TTTCGTGGGG | 0.992 ± 0.056
AGTTAAGATA | 0.9907 ± 0.0031
AGGCACTACA | 1.017 ± 0.0064
AAAATGCGAT | 1.01 ± 0.045
GGCACTTCGG | 0.99 ± 0.014
TCCTTTTTGC | 1.07 ± 0.069
AAAGGAGGGT | 0.9994 ± 0.0062
TGTTGGTGGC | 1.02 ± 0.071
TTACCAGGGG | 1.4 ± 0.25
TTGGTTGACG | 0.963 ± 0.041
TTCGGGGATT | 1.37 ± 0.58
AGGTTCAGTC | 1.02 ± 0.022
TGGGGATTTG | 0.99 ± 0.032
ATGCGTTTTG | 1.01 ± 0.017
ATCTGCCTGC | 1.074 ± 0.009
TTCAGTAAGA | 1 ± 0.04
AGGGAGACGG | 1 ± 0.033

Sequence | switch fluorescence ratio
TCATGAACAG | 0.993 ± 0.014
TGGGTTCAGC | 1 ± 0.011
TACTCGGCCG | 1.02 ± 0.035
TTAATTGTGT | 0.993 ± 0.0095
ATATCTATAG | 0.958 ± 0.018
AATGAGGCTT | 0.996 ± 0.011
GAATGGTTTC | 0.9947 ± 0.0053
GGGCTGCATT | 1.01 ± 0.011
AATTTCGGAG | 1.02 ± 0.026
TTAATTATTT | 0.998 ± 0.029
AAGGTCGGCC | 0.966 ± 0.017
TTTAAACGGG | 1 ± 0.011
GCTATTTTTT | 0.987 ± 0.022
GTGAGGTATC | 1.04 ± 0.032
TAAGACCAGT | 0.981 ± 0.034
TATTTGGGGT | 0.999 ± 0.027
AGTATTTAGT | 1.003 ± 0.0092
TGTGAACAGT | 0.975 ± 0.044
ATTGCATAAT | 1.06 ± 0.078
ATAGGGTGAT | 1.03 ± 0.021
GTAGGAGGTA | 0.9807 ± 0.0039
CGATGGTTGG | 1.03 ± 0.07
ATTTCGGA | 0.975 ± 0.034

Sequence | switch fluorescence ratio
TTTCTGTGGG | 0.986 ± 0.016
TTTTGAGTGG | 0.995 ± 0.025
TGGATAAGGA | 0.983 ± 0.013
GGAACAGCGG | 1.001 ± 0.0016
TTAAAAATAA | 1.04 ± 0.073
TGTAATTTGT | 1 ± 0.027
GGAATTGAGT | 1.02 ± 0.021
TTCTTTGACG | 1.09 ± 0.077
ATTTCTATTT | 1.01 ± 0.059
CAAGTTTGC | 1.08 ± 0.017
TTAAATAGGG | 1 ± 0.057
ACTTTTACA | 1.155 ± 0.0053
CATTTGGGTT | 1.03 ± 0.059
ACGAGAGTTG | 0.975 ± 0.021
ACTTTGCATT | 1.19 ± 0.038
TACAGGGTCG | 1.13 ± 0.049
CTTTTTAGAG | 0.994 ± 0.015
GGGCTGATCT | 1.04 ± 0.045
AAATCCGATT | 1.01 ± 0.011
TGTGAGCTTT | 0.975 ± 0.03
AAAGACGGCA | 1.53 ± 0.02
TCAAGGTATT | 1 ± 0.034
TTAAGCTAGG | 1.004 ± 0.0054

Sequence | switch fluorescence ratio
TGTGGAAGGG | 0.981 ± 0.019
GGGGGGGGAA | 1.01 ± 0.063
TTGCTCGCCG | 1.08 ± 0.035
GCTCGACGGC | 1.017 ± 0.0018
TAGGGTATTT | 0.987 ± 0.023
TGATATTT | 0.991 ± 0.022
CCTGATTGAA | 0.991 ± 0.0088
AGTTTGGGTT | 1.01 ± 0.073
GATGGTGTTT | 1 ± 0.034
TGTGGAACGT | 0.9813 ± 0.0082
GGGCAAGTTA | 1.009 ± 0.007
TGGGAAAGGG | 1.01 ± 0.036
CCCATGTTTC | 1.02 ± 0.023
GGTTCGCAGC | 1.15 ± 0.025
GCGGGGGTTC | 1.04 ± 0.05
TAGAAACGGG | 1.02 ± 0.031
TATTTCATGT | 1.02 ± 0.044
TGTTTATGGG | 1.01 ± 0.033
GTTAGTGGTT | 1.02 ± 0.015
AGGATGTAGG | 1.02 ± 0.035
GAAAAGGGTG | 0.99 ± 0.051
AGATGAGCCG | 1.05 ± 0.11
GCGTATGTAT | 1.002 ± 0.0068

Sequence | switch fluorescence ratio
AGGTTTAGGG | 1.03 ± 0.034
ATCGCTAGCT | 0.9905 ± 0.0068
AGATTTATCC | 0.977 ± 0.065
GTGGAATGGT | 0.986 ± 0.024
CACGAAAGGA | 1.07 ± 0.033
GCTGGCTCTT | 1.01 ± 0.014
TTGGAGTCCC | 0.99 ± 0.022
CTGGGTTAGT | 1.03 ± 0.035
GATATCGTCT | 1.03 ± 0.028
GACCCTATAA | 1.11 ± 0.066
CGGTAGATGT | 1 ± 0.034
TTTTTAGGAC | 0.997 ± 0.014
CCTGCCAAGA | 2 ± 1.4
TGTAACTGAG | 1.0374 ± 3e-05
ATTGGTTAAA | 1 ± 0.026
TAGCTGAGGA | 1.01 ± 0.032
TTGTGGGG | 0.992 ± 0.021
GACTATGACC | 1.05 ± 0.013
TAAAATTGAT | 0.9818 ± 0.0038
AACGGTTAAA | 1.011 ± 0.0022
CGTTGCGCTA | 1.1 ± 0.012
CAGTAAAGTG | 0.998 ± 0.017
AACTCGGTCG | 1.04 ± 0.051

Sequence | switch fluorescence ratio
TGTTCTTGGG | 0.985 ± 0.026
TGAGGTGCGA | 1.01 ± 0.023
ATGAATGCGG | 0.99 ± 0.0094
GTGGTAGGGC | 1.021 ± 0.001
ATAGGGAGTG | 0.996 ± 0.043
GAGCTCAGTG | 1.002 ± 0.0069
AGTTGGGATT | 1.032 ± 0.01
TTTTTTAGAG | 1.004 ± 0.0068
TTATATCGTT | 0.998 ± 0.017
TTGGGGGACC | 0.998 ± 0.025
ACCATTTTTT | 0.9862 ± 0.006
CCGGAAATGA | 1.02 ± 0.054
TGGCGAAGAG | 0.999 ± 0.011
TTGTGGGGCG | 0.986 ± 0.068
ATCGGAATCC | 1.19 ± 0.094
AGCGTGACTG | 0.987 ± 0.019
TCAGTAGCGG | 1.07 ± 0.1
CCATTTGACC | 1.04 ± 0.014
TCGTATCAAG | 0.969 ± 0.026

From the supplement of paper PMC10126150
